Measurements from patent US20240294641A1 (CHILDREN S MEDICAL CENTER, published 2024).
Read-outs that look alike come from different tables or passages of the source.

Assays:
[1] = target: T1, PD1 extracellular domain, without fusion to other proteins (human, UniProt Q15116 25-170); test: Biacore (SPR), antibody immobilized on the sensor chip, PD1 extracellular domain in flow
T1 construct: extracellular domain; also called unfused PD1; monomeric PD1
Protocol: In this assay, antibodies were immobilized on sensor chips, and PD1 extracellular domain, the same protein used in the ELISA experiment in FIG. 5C, flowed through sensor chip. The kinetics of PD1/antibody interaction was measured in real time. The table lists the association rate constant (kₐ), dissociation rate constant (kd) and equilibrium dissociation constant (KD) for each antibody.
Biacore analysis of the kinetics of the interaction between anti-PD1 antibodies and PD1 was performed by Affina Biotechnologies. Given the quantitative and sensitive nature of the assay, non-physiological modifications of the antibodies and PD1 were minimized. […] The PD1-Fc fusion protein contains a TEV protease cleavage site. After TEV digest, the PD1 portion was separated from the Fc region. […] However, in the context of the PD-Fc fusion, PD1 is dimerized through the Fc region and may engage in bivalent interactions with IgG antibodies. The avidity effect can cause major deviations from the actual binding affinity between monomeric PD1 and single antigen-binding site. Separation of PD1 from the Fc portion prevented this error. In the biacore assay, the antibodies were immobilized on sensor chips and PD1 was passed over the immobilized antibodies. Association and dissociation of antibodies and PD1 were detected in real time.

[2] = target: T1, PD1 extracellular domain, without …; test: ELISA, plate coated with PD1 extracellular domain without Fc fusion, OD405
Description: (§1) ELISA was used to compare the PD1 binding activities of the new and previous anti-PD1 antibodies. The ELISA coating antigen was a recombinant protein of the extracellular domain of PD1, without fusion to other proteins so that the ELISA measured binding activities specific to PD1.

[3] = target: T2, full-length human PD1 expressed on NS1 cells (PD1-NS1) (human, UniProt Q15116 25-288); test: FACS on PD1-NS1 cells, PE-anti-human kappa
T2 construct: whole, on cells; also called surface-expressed PD1; PD1 expressing cell line

[4] = target: T2, full-length human PD1 expressed on NS1 …; test: FACS on PD1-NS1 cells, PE-anti-human kappa; remark: listed apart in the source
Protocol: To test the binding of anti-PD1 antibodies to surface expressed PD1, full-length human PD1 in mouse plasmacytoma cell line, NS1, was expressed. […] A construct that expresses the full length human PD1 was transfected into NS1 cells, and clones with stable integration of the expression construct were obtained. […] For the FACS analysis in FIG. 5B, the PD1-NS1 cells were incubated with anti-PD1 antibodies. […] The FACS staining reaction was analyzed on Attune NXT FACS machine, and the data were plotted with FlowJo 10 software.

[5] = target: T1, PD1 extracellular domain, without …; test: ELISA, plate coated with PD1 extracellular domain without Fc fusion, OD405; remark: listed apart in the source
Description: as §1
In this ELISA experiment, PD1 extracellular domain, without Fc fusion, was coated on the ELISA plate.

T2 sequence (Q15116 25-288): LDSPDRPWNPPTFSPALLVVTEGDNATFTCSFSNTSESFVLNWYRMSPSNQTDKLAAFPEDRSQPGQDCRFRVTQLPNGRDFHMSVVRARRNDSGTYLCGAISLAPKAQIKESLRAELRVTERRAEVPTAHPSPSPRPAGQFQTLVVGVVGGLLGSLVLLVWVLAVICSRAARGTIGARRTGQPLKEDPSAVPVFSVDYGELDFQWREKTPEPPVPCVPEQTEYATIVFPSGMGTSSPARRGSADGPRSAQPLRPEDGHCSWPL
T1 sequence (Q15116 25-170): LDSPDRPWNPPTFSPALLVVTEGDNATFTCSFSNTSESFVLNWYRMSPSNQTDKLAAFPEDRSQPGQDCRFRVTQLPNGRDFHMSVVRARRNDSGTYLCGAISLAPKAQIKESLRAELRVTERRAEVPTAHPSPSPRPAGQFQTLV

B1: 17D8 antibody (antibody, V domains shown)
VH: QVQLVESGGDVVQPGGSLRLSCAASGVAFSNYGMHWVRQAPGKGLEWVAVIWYDGSNKYYADSVKGRFTISRDNSKNMLYLQMNSLRAEDTAMYYCARNDDYWGQGTLVTVSS
VL: EIVLTQSPATLSLSPGERATLSCRASQSVSSYLAWYQQKPGQAPRLIIYDASNRATGIPARFSGSGSGTDFTLTISSLEPEDFAVYYCQQRSNWPLTFGGGTKVEIK
notes: Prototype anti-PD1 antibody (U.S. Pat. No. 8,008,449 B2); Produced as human IgG4/kappa; His-tagged for ELISA, untagged for Biacore
Which Kd [1] does the source give for B1 here?
Its Kd is 3.4 nM.

What about the koff [1] of the same binder?
The koff was 0.0013 s⁻¹.

And the kon [1]?
Its kon is 387000 M⁻¹ s⁻¹.

B2: M1-5 (antibody, human IgG4, V domains shown)
VH: QVQLVESGGDVVQPGGSLRLSCTVSGAVFRDLGMEWVRQAPGKGLEWLAVIWYDGGRKHYADSVKGRFTISRDNSRNMLFLQMNGLRVDDTAMYYCTRSHSTDDYWGQGTLVTVSS
VL: EIVLTQSPATLSVSPGERATLSCRASQSISSDLAWFQQKPGQAPRLIIHGASKRATGIPARFSGSGSGTDFTLTISSLEPEDFAVYYCQQRDSWPLNFGGGTKVEIK
notes: Expressed as human IgG4/kappa; without His tag and Protein A purified for Biacore; also called 319-9-34
For B2, which Kd [1] is on record?
Its Kd is 2.1 nM.

What about the koff [1] of the same binder?
Its koff is 0.0021 s⁻¹.

And the kon [1]?
The kon was 995000 M⁻¹ s⁻¹.

B3: M2-1 (antibody, human IgG4, V domains shown)
VH: QVQLVESGGDVVQPGGSLRLSCSASGLVFRDYGMNWVRQAPGKGLEWVGLIWYDGTKKYYSDFVKGRFTISRDNSKNMLYLQMNNLRAEDTAIYYCARFLIGATRRGNAMDYWGQGTSVIVSS
VL: EVVLTQSPATLSLSPGERATLSCRASQSIDSDLAWSQQKTGQPPRLIIYDASNRATGIPARFSGSGSGTDFTLTISSLEPEDFAVYYCQQRSDWPLTFGGGTKVEIR
notes: Expressed as human IgG4/kappa; without His tag and Protein A purified for Biacore; also called 397-27-3
With B3 as the binder, how does the Kd [1] read?
The Kd was 3.7 nM.

And the koff [1]?
The koff was 0.00074 s⁻¹.

And the kon [1]?
The kon was 199000 M⁻¹ s⁻¹.

B4: M2-2 (antibody, V domains shown)
VH: QVQLVESGGDVVQPGGSLRLSCSASGLVISDYGMNWVRQAPGKGLEWVGLIWYDGSKKYYSDFVKGRFTISRDNSKNILYLQMNNLRAEDTAMYYCARFLIGATRRGNAMDYWGQGTSVTVSS
VL: EVVLTQSPATLSLSPGERATLSCRASQSIDSDLAWSQQKPGQPPRLIIYDASNRATGIPARFSGSGSGTDFTLTISSLEPEDFAVYYCQQRSDWPLTFGGGTKVEIR
notes: Expressed as human IgG4/kappa in 293F or Expi293 cells; also called 397-27-23
Does B4 bind [2]?
Result: binds

Does B4 bind [3]?
Result: binds

B5: M2-3 (antibody, V domains shown)
VH: QGHLVESGGDVVLPGGSLRLSCTESGVDLSDFGIHWVRQTPGKGLEWVALIWYDGSKKFYADSVKDRFTISRDNSKNMVYLEMISLRVEDTAMYFCARGIRRGPWFTYWGPGTLVTVST
VL: EIVLTQSPVILSLSPGERATLSCRASQSISSDLAWFQQTPGQAPRLIIYDASNRATGIPARFSGSGSGTDFTLTISSLEPEDFAVYYCQQRSNWPLTFGGGTKVEIK
notes: Expressed as human IgG4/kappa in 293F or Expi293 cells; also called 397-27-25
What does the source list for B5?
binding result [4]: binds; binding result [5]: binds

B6: M1-1 (antibody, V domains shown)
VH: QVQLVESGGDVVQPGGSLRLSCAASGVAFRDYGMHWVRQAPGKGLEWVAVIWYDGSKKYYGDSVKGRFTVSRDNSKNMLYLEMNGLKAEDTAMYYCARNDDYWGQGTLVTVSS
VL: EIVLTQSPATLSLSPGERATLSCRASQSVSNSLSWYQQNPGQSPRLIIYDTSKRATGIPARFSGSGSGTDFTLTINNLETEDFAVYYCHQRSDWPLTFGGGTKVEIK
notes: Expressed as human IgG4/kappa in 293F or Expi293 cells; retains the CDR H3 of 17D8; also called 319-9-8
Does B6 bind [4]?
Result: binds

Does B6 bind [5]?
Result: binds

B7: M1-7 (antibody, V domains shown)
VH: QLQLVESGGDVVQPGGSLRLSCAASGVVFSDFGLEWVRQAPGKGLEWLAVIWYDGSRKHYADSVKGRFTISRDNSKNMLYLQMNSLRVEDTAMYYCARCHSKEDYWGQGTLVTVSS
VL: EIEVTQSPATLSLSPGERATLSCRASQSIDTDLAWFQQRPGQTPRLIIYDASKRATGIPARFSGGGSGTDFTLTISSLEPEDFAVYYCQQRTTWPLTFGGGTKVEIK
notes: Expressed as human IgG4/kappa in 293F or Expi293 cells; also called 319-9-75
What does the source list for B7?
binding result [4]: binds; binding result [5]: binds

B8: M1-4 (antibody, V domains shown)
VH: QVQLVESGGDVVQPGGSLRLSCAVSGVTFGDFGFEWVRQAPGKGLEWVAVIWYDGSRKHYAESVRGRFTISRDNSRNMMYLEMTGLRVEDTAKYYCTRSHSHEDYWGQGTLVTVSS
VL: EIVLTQSPATLSLSPGERATLSCRASQSISNYLAWFQQKSGQAPRLIIHDAFKRAAGIPTRFSGSGSGTDFTLTISSLEPEDFAVYYCQQRDNWPLNFGGGTKVEIK
notes: Expressed as human IgG4/kappa in 293F or Expi293 cells; also called 319-9-27
Does B8 bind [2]?
Result: binds

Does B8 bind [3]?
Result: binds

B9: M1-6 (antibody, V domains shown)
VH: QVQLVESGGDVVQSGGSLRLSCAVSGVVFSDYGFEWVRQAPGKGLEWVAVIWYDGSRKHYADSVQGRFTISRDNFRNMLYLQMTGLRVEDTAKYYCTRSHSHEDYWGQGTLVTVSS
VL: EIVLTQSPATLSLSPGERATLSCGASQNIDNSLAWFQQKPGQAPRLIIYDASKRATGIPARFSGSGSGTDFTLTISTLEPEDFAVYYCQQRDHWPLNFGGGTKVEVK
notes: Expressed as human IgG4/kappa in 293F or Expi293 cells; also called 319-9-53
Which results are given for B9?
binding result [2]: binds; binding result [3]: binds

B10: M2-5 (antibody, V domains shown)
VH: QVQLVESGGDVVQPGGSLRLSCAASGVVFSDYGLYWVRQAPGKGLEWVALIWYDGSKKFYADSVKGRFSISRDNSKNMLYLQMNNLRADDSAIYYCSRGIRQGPWFAYWGQGTRVTVSP
VL: EIVLTQSPATLSLSPGERATLSCRASQSISSDLTWFQQKPGQAPRLIIYDASNRATGIPARFSGSGSGTDFTLTISSLEPEDFVVYYCLQRSDWPLTFGGGTKVEIK
notes: Expressed as human IgG4/kappa in 293F or Expi293 cells; also called 397-27-93
Does B10 bind [2]?
Result: binds

Does B10 bind [3]?
Result: binds

B11: M1-3 (antibody, V domains shown)
VH: QEWLVESGGDVVQPGGSLRLSCATSKVTFNDFGIHWVRQAPGKGLEWVAIIWYDGSRNHYADSVRGRFTLSRDNSKNMVHLHMSSLRTEDTAMYYCARGIHSNDDYWGQGTMVTVSS
VL: EIVLTQSPATLSLSPGERATLSCRTSQSVSSDLAWFQQKPGQAPRLFIFDASKRVNGIPARFSGSGSGTDFTLTISSLEPEDFAVYYCQQRTDWPLTFGGGSRVEIK
notes: Expressed as human IgG4/kappa in 293F or Expi293 cells; also called 319-9-17
Does B11 bind [2]?
Result: binds

Does B11 bind [3]?
Result: binds

B12: M2-4 (antibody, V domains shown)
VH: QVQLVESGGDVVQPGGSLRLSCAASGVAFRNYGMHWVRQAPGKGLEWVAIIWYDGSNKYYADSVKGRFTISRDNSKNMLYLQMNSLRAEDTAMYYCARLSIGTTHYFDTDDYWGQGTSVTVSS
VL: EIVLTQSPATLSLSPGERATLSCRASQSVSSYLAWYQQKVGQAPRLIIFDASNRATGIPARFSGSGSGTDFTLTITSLDPEDFAVYYCQQRSAWPLTFGGGTKVEIR
notes: Expressed as human IgG4/kappa; 6xHis tag at the C-terminus of the Fc for ELISA
Does B12 bind [2]?
Result: binds

Does B12 bind [3]?
Result: binds

B13: M1-2 (antibody, V domains shown)
VH: QVQLVESGGDVVQPGGSLRLSCAASGVAFSDYGMEWVRQAPGKGLEWLAVIWYDGSRKHYADSVKGRFTISRDNSKNILYLQMNSLRAEDTAMYYCARCHSKDDYWGQGTLVTVSS
VL: EIVLTQFPATLSLSPGERATLSCRTSQNIDSDLAWFQQKPGQAPRLIIYDASNRATGIPARFSGGGSGTDFTLTITSLEPEDFAVYYCQQRTTWPLTFGGGTKVEIK
notes: Expressed as human IgG4/kappa in 293F or Expi293 cells; also called 319-9-15
Does B13 bind [2]?
Result: binds

Does B13 bind [3]?
Result: binds
